Reference: patent US20180051082A1

How the values were obtained:
human FcRn (human) = human FcRn (human) (UniProt P55899); assay: BIACORE-based assay, antibody bound to FcRn at pH 6.0, residual bound antibody after adjustment to pH 7.4
[1] = target: cynomolgus FcRn (cynomolgus monkey) (UniProt Q8SPV9); assay: as above
Sequence of cynomolgus FcRn (cynomolgus monkey) (Q8SPV9 24-297): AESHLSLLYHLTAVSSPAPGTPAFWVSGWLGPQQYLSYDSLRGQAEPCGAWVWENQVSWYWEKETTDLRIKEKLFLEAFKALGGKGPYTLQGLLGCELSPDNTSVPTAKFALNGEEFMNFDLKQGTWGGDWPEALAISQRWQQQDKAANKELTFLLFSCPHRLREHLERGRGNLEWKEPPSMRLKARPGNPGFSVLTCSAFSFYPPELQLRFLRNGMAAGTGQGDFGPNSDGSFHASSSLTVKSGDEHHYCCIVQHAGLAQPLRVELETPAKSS

Sequence of human FcRn (human) (P55899 24-297 limits assumed, chain 1 of 2): as the sequence (Q8SPV9 24-297) above, with D39N, Q44E, S99G, G189S, N190S, M217L, T269S counted along it
Sequence of human FcRn (human) (P61769 21-119 limits assumed, chain 2 of 2, further chain): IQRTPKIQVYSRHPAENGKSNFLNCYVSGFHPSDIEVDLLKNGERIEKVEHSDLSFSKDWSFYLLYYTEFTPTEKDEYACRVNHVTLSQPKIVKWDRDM

human IgG1 version of BMS-936558, designated BMS (antibody)
% Residual Binding at pH 7.4 (human FcRn (human)): 2% | % Residual Binding at pH 7.4 [1]: 1.7%
